Target: T1, The other proteins of the P. furiosus Cmr effector complex (Cmr1, Cmr3, Cmr4, Cmr5, Cmr6, with crRNA)
T1 chain 1: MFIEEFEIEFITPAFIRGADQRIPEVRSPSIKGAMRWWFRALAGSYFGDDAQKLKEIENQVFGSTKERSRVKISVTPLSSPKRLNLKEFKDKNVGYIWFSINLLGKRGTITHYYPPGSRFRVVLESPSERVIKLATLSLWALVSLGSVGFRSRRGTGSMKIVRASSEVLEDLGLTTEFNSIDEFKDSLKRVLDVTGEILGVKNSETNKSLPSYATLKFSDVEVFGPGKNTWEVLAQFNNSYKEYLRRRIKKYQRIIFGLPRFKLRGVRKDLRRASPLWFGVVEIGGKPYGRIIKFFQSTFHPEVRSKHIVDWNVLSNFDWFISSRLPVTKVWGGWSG
T1 chain 2: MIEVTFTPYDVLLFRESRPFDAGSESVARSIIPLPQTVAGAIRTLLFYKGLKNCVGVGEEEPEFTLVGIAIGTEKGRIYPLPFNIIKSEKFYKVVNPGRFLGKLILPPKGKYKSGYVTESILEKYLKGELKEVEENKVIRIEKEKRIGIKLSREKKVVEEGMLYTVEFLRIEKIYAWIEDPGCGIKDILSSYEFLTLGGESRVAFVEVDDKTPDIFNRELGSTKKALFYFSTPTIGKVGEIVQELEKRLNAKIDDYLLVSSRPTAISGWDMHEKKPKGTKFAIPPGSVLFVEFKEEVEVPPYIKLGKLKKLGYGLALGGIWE
T1 chain 3: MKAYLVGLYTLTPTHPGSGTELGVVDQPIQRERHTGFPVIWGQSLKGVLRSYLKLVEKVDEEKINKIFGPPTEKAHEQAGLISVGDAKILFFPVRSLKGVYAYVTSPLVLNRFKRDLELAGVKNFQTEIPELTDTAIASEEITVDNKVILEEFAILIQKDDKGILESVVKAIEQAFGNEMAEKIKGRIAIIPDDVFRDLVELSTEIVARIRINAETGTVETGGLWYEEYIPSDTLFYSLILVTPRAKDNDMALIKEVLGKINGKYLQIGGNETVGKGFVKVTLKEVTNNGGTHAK
T1 chain 4: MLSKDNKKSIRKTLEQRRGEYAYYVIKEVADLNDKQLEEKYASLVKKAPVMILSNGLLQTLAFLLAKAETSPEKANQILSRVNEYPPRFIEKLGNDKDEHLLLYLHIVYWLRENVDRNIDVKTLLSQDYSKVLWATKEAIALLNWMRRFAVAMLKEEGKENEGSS
T1 chain 5: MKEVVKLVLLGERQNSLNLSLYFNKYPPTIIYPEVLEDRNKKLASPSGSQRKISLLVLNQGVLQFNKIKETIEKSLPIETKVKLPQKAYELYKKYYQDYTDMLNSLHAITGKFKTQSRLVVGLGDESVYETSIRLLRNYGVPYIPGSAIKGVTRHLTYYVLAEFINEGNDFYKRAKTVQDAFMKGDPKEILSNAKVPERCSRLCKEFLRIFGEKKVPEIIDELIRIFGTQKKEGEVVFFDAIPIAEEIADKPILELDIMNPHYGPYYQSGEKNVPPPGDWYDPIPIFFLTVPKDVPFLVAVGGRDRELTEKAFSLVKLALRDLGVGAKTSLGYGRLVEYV

B1: Pyrococcus furiosus Cmr2 protein, wild type (PF1129) (protein)
chain: MVNIKEKLFVYLHDPPDKALKIENHEERSKKILSSGNIQYSRTDKVKQADALSSKTQRFIIRTKENKEPVIDFLGRSSGKYFHVGYPVFIHPISTEIKRYETLEKYIDLGRSNRGERFVNEFLERVSKLEGDVLKEVFEDASNKFKGEESKQWAYIWQFYPVKLKEGVKEFAKSELKLKEEEAEKFAEEFVNLPADTRFPDHAIWTHLDLTSALSVKDPTLLRIKIVPVQPFIANSRKQLDLWASSHLLSMLMYKALEVIVDKFGPEHVIYPSLRDQPFFLKFYLGENIGDEILVANLPNKALAIVSGKEAEKIEEEIKKRIRDFLLQLYREAVDWAVENGVVKVDRSEKDSMLKEAYLKIVREYFTVSITWVSLSEKEDIYQVTENAGLSDEDVKKWLKFAEKKENSRVLERIAIYPLLVKILDSLGERKVTEERFEKSEQLKGWKCHVCGENLAIFGDMYDHDNLKSLWLDEEPLCPMCLIKRYYPVWIRSKTGQKIRFESVVDVALLYKNWRKIFDEKYGKDLVSKAREVSEDFVKDNMLVDSDLYYSSTWESGLSKKLKNKKEIDEEKVKEVVDFLNAAYKEIGNPPKYYAILVMDGDDMGKVISGEVLGEISTRIHPNIRDYVEIPEAKYYSTPQVHVAISQALANFSIREVRSVVKDEGLLIYAGGDDVLAILPVDKALEVAYKIRKEFGKSFENGSLLPGWKLSAGILIVHYKHPLYDALEKARDLLNNKAKNVPGKDTLAIGLLKRSGSYYISLVGWELIRVFYNSELRKKLLEEKGGVGKRFIYHVLREVDTWPKVGIDEMLKFEVIRHIRGRNKEETKELREKIYGEIKDLLEHVRGNNEVEKVRGLFTFLKIITDAEVFP
ssDNA nuclease activity (cleavage of 5' radiolabeled ssDNA oligo, denaturing PAGE): The reconstituted Cmr complex (including Cmr1-6 and crRNA) displays very little ssDNA nuclease activity in comparison with approximately equimolar concentrations of Cmr2 alone

Reference: patent publication US20190161753
